Biological target: T1, c-kit, endogenous in FDC-P1 cells (mouse, UniProt P05532 25-979)
T1 construct: whole, on cells
Experiment: co-immunoprecipitation with anti-CXCR4 from FDC-P1 whole cell lysates

T1 sequence (P05532 25-979): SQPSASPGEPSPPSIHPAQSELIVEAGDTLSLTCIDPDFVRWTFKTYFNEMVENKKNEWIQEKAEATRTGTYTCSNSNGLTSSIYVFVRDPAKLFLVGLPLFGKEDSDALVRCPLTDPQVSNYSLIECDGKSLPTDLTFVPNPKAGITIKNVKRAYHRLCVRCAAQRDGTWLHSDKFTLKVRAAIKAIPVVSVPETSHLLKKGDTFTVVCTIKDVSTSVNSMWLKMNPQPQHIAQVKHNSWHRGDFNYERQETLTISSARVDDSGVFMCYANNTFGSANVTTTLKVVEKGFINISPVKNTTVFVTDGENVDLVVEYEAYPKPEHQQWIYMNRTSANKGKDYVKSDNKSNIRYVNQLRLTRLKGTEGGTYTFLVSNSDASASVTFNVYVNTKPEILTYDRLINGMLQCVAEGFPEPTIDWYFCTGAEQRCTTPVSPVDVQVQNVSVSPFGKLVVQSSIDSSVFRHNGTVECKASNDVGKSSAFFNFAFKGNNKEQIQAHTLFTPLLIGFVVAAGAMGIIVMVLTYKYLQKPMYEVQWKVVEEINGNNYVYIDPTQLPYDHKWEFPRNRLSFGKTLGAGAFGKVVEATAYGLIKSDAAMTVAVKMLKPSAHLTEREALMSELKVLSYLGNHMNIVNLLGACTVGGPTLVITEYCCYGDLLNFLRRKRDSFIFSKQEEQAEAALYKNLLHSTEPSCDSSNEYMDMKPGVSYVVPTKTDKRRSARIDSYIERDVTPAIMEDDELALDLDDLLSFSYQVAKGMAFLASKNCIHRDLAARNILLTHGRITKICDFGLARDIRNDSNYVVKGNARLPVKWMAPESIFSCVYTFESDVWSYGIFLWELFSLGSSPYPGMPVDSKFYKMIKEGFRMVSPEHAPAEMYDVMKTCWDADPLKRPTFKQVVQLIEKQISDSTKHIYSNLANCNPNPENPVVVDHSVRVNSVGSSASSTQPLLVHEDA

- binding result: no binding
B1: CXCR4, endogenous in FDC-P1 cells (receptor, mouse, UniProt P70658 1-359, looked up)
chain: MEPISVSIYTSDNYSEEVGSGDYDSNKEPCFRDENVHFNRIFLPTIYFIIFLTGIVGNGLVILVMGYQKKLRSMTDKYRLHLSVADLLFVITLPFWAVDAMADWYFGKFLCKAVHIIYTVNLYSSVLILAFISLDRYLAIVHATNSQRPRKLLAEKAVYVGVWIPALLLTIPDFIFADVSQGDISQGDDRYICDRLYPDSLWMVVFQFQHIMVGLILPGIVILSCYCIIISKLSHSKGHQKRKALKTTVILILAFFACWLPYYVGISIDSFILLGVIKQGCDFESIVHKWISITEALAFFHCCLNPILYAFLGAKFKSSAQHALNSMSRGSSLKILSKGKRGGHSSVSTESESSSFHSS
notes: whole, on cells; Immunoprecipitated with anti-CXCR4 from whole cell lysates in the co-immunoprecipitation

Reference: patent US20100061978A1 (UNIVERSITY OF BRITISH COLUMBIA, published 2010)
